In patent publication US20030118551A1:

Experiments:
[1] = biological target: collagen (collagen-coated microtiter wells and culture plates; collagen matrices); assay: about 1 µg protein on collagen-coated microtiter plates, washes of rising stringency, immunodetection with DAB
[2] = biological target: collagen (collagen-coated microtiter wells and culture plates; collagen matrices); assay: cell-based or functional assay

Substance	urea needed to release the collagen-bound protein [1] [M]	transduction efficiency of NIH 3T3 cells overlaid upon the virus-bound collagen [2] [%]
purified, renatured SU-ECB-CEE+ chimeric envelope protein (His×6 tag, von Willebrand Factor derived collagen binding domain, mature SU region of MoMuLV env gp70, residues 34 to 474) (from UniProt P03385 52-474)	3	
chimeric ECB-CEE+ Moloney Murine Leukemia Virus gp70 envelope protein with collagen binding domain, on retroviral vector particles (from UniProt P03385 52-469)		20 to 40
